Here are results for one substance from publication PMC12507909.

The term Kd denotes the concentration at which binding is half-saturated.

In this assay the target is basigin (BSG), recombinant extracellular domain Met1-His205 (human). Description: ELISA; Maxisorp plates coated with 5 μg/mL of each receptor candidate; serial dilutions of PvRBP1a_(158-650)LTID and LTID (48,000 pM to 187.5 pM and 4,000 pM to 1.28 pM) in blocking solution, 16 hours at 4°C; detected with a TurboID-specific antibody; one-site binding saturation model; triplicates. (ELISA stands for enzyme-linked immunosorbent assay.)

As for “PvRBP1a_(158-650)LTID fusion protein (from UniProt Q5DSE1 158-650) (domain or fragment)”, the Kd amounted to 2.16 nM.
